B1: BCY19683 (peptide)
peptide: Ac-CY[Cba]PDYLC[dCha]DEYC-NH2
modifications: linker 1-8-13 via TATA
SMILES: CC(=O)N[C@H]1CSCCC(=O)N2CN3CN(C2)C(=O)CCSC[C@H](NC(=O)[C@H](CC(C)C)NC(=O)[C@H](Cc2ccc(O)cc2)NC(=O)[C@H](CC(=O)O)NC(=O)[C@@H]2CCCN2C(=O)[C@H](CC2CCC2)NC(=O)[C@H](Cc2ccc(O)cc2)NC1=O)C(=O)N[C@H](CC1CCCCC1)C(=O)N[C@@H](CC(=O)O)C(=O)N[C@@H](CCC(=O)O)C(=O)N[C@@H](Cc1ccc(O)cc1)C(=O)N[C@H](C(N)=O)CSCCC3=O
notes: scaffold TATA
B2: BCY19686 (peptide)
peptide: Ac-CY[Cba]PD[Dopa]LC[dA]DEYC-NH2
modifications: linker 1-8-13 via TATA
SMILES: CC(=O)N[C@H]1CSCCC(=O)N2CN3CN(C2)C(=O)CCSC[C@H](NC(=O)[C@H](CC(C)C)NC(=O)[C@H](Cc2ccc(O)c(O)c2)NC(=O)[C@H](CC(=O)O)NC(=O)[C@@H]2CCCN2C(=O)[C@H](CC2CCC2)NC(=O)[C@H](Cc2ccc(O)cc2)NC1=O)C(=O)N[C@H](C)C(=O)N[C@@H](CC(=O)O)C(=O)N[C@@H](CCC(=O)O)C(=O)N[C@@H](Cc1ccc(O)cc1)C(=O)N[C@H](C(N)=O)CSCCC3=O
notes: scaffold TATA
B3: BCY18444 (peptide)
peptide: Ac-CY[Cba]PDYLC[dNva]DEYC-NH2
modifications: linker 1-8-13 via TATA
SMILES: CCC[C@H]1NC(=O)[C@@H]2CSCCC(=O)N3CN(CN(C3)C(=O)CCSC[C@H](NC(C)=O)C(=O)N[C@@H](Cc3ccc(O)cc3)C(=O)N[C@@H](CC3CCC3)C(=O)N3CCC[C@H]3C(=O)N[C@@H](CC(=O)O)C(=O)N[C@@H](Cc3ccc(O)cc3)C(=O)N[C@@H](CC(C)C)C(=O)N2)C(=O)CCSC[C@@H](C(N)=O)NC(=O)[C@H](Cc2ccc(O)cc2)NC(=O)[C@H](CCC(=O)O)NC(=O)[C@H](CC(=O)O)NC1=O
notes: scaffold TATA
B4: BCY19684 (peptide)
peptide: Ac-CY[Cba]PDYLC[dK](Pent4ynoyl)DEYC-NH2
modifications: linker 1-8-13 via TATA
SMILES: C#CCCC(=O)NCCCC[C@H]1NC(=O)[C@@H]2CSCCC(=O)N3CN(CN(C3)C(=O)CCSC[C@H](NC(C)=O)C(=O)N[C@@H](Cc3ccc(O)cc3)C(=O)N[C@@H](CC3CCC3)C(=O)N3CCC[C@H]3C(=O)N[C@@H](CC(=O)O)C(=O)N[C@@H](Cc3ccc(O)cc3)C(=O)N[C@@H](CC(C)C)C(=O)N2)C(=O)CCSC[C@@H](C(N)=O)NC(=O)[C@H](Cc2ccc(O)cc2)NC(=O)[C@H](CCC(=O)O)NC(=O)[C@H](CC(=O)O)NC1=O
notes: scaffold TATA
B5: BCY18437 (peptide)
peptide: Ac-C[4Pal][Cba]PDYLC[dA]DEYC-NH2
modifications: linker 1-8-13 via TATA
SMILES: CC(=O)N[C@H]1CSCCC(=O)N2CN3CN(C2)C(=O)CCSC[C@H](NC(=O)[C@H](CC(C)C)NC(=O)[C@H](Cc2ccc(O)cc2)NC(=O)[C@H](CC(=O)O)NC(=O)[C@@H]2CCCN2C(=O)[C@H](CC2CCC2)NC(=O)[C@H](Cc2ccncc2)NC1=O)C(=O)N[C@H](C)C(=O)N[C@@H](CC(=O)O)C(=O)N[C@@H](CCC(=O)O)C(=O)N[C@@H](Cc1ccc(O)cc1)C(=O)N[C@H](C(N)=O)CSCCC3=O
notes: scaffold TATA
B6: BCY18328 (peptide)
peptide: ACNLQAPCMLTG[hArg]VCA-NH2
modifications: linker 2-8-15 via TATA; N-terminus assumed
SMILES: CSCC[C@@H]1NC(=O)[C@@H]2CSCCC(=O)N3CN(CN(C3)C(=O)CCSC[C@@H](C(=O)N[C@@H](C)C(N)=O)NC(=O)[C@H](C(C)C)NC(=O)[C@H](CCCCNC(=N)N)NC(=O)CNC(=O)[C@H]([C@@H](C)O)NC(=O)[C@H](CC(C)C)NC1=O)C(=O)CCSC[C@H](NC(=O)[C@H](C)N)C(=O)N[C@@H](CC(N)=O)C(=O)N[C@@H](CC(C)C)C(=O)N[C@@H](CCC(N)=O)C(=O)N[C@@H](C)C(=O)N1CCC[C@H]1C(=O)N2
notes: scaffold TATA
B7: BCY18440 (peptide)
peptide: Ac-CY[Cba][NMeA]DYLC[dA]DEYC-NH2
modifications: linker 1-8-13 via TATA
SMILES: CC(=O)N[C@H]1CSCCC(=O)N2CN3CN(C2)C(=O)CCSC[C@H](NC(=O)[C@H](CC(C)C)NC(=O)[C@H](Cc2ccc(O)cc2)NC(=O)[C@H](CC(=O)O)NC(=O)[C@H](C)N(C)C(=O)[C@H](CC2CCC2)NC(=O)[C@H](Cc2ccc(O)cc2)NC1=O)C(=O)N[C@H](C)C(=O)N[C@@H](CC(=O)O)C(=O)N[C@@H](CCC(=O)O)C(=O)N[C@@H](Cc1ccc(O)cc1)C(=O)N[C@H](C(N)=O)CSCCC3=O
notes: scaffold TATA
B8: BCY18326 (peptide)
peptide: ACNLQAPCMLTGK[Chg]CA-NH2
modifications: linker 2-8-15 via TATA; N-terminus assumed
SMILES: CSCC[C@@H]1NC(=O)[C@@H]2CSCCC(=O)N3CN(CN(C3)C(=O)CCSC[C@@H](C(=O)N[C@@H](C)C(N)=O)NC(=O)[C@H](C3CCCCC3)NC(=O)[C@H](CCCCN)NC(=O)CNC(=O)[C@H]([C@@H](C)O)NC(=O)[C@H](CC(C)C)NC1=O)C(=O)CCSC[C@H](NC(=O)[C@H](C)N)C(=O)N[C@@H](CC(N)=O)C(=O)N[C@@H](CC(C)C)C(=O)N[C@@H](CCC(N)=O)C(=O)N[C@@H](C)C(=O)N1CCC[C@H]1C(=O)N2
notes: scaffold TATA
B9: BCY18470 (peptide)
peptide: ACYLPDYLCGDEYCA-NH2
modifications: linker 2-9-14 via TATA; also: scaffold: TATA, TATB or TBMT
notes: scaffold TATA
B10: BCY19687 (peptide)
peptide: Ac-CY[Cba]PD[Tyr(2-F)]LC[dA]DEYC-NH2
modifications: linker 1-8-13 via TATA
notes: scaffold TATA
B11: BCY18435 (peptide)
peptide: Ac-CN[Cba]PDYLC[dA]DEYC-NH2
modifications: linker 1-8-13 via TATA
SMILES: CC(=O)N[C@H]1CSCCC(=O)N2CN3CN(C2)C(=O)CCSC[C@H](NC(=O)[C@H](CC(C)C)NC(=O)[C@H](Cc2ccc(O)cc2)NC(=O)[C@H](CC(=O)O)NC(=O)[C@@H]2CCCN2C(=O)[C@H](CC2CCC2)NC(=O)[C@H](CC(N)=O)NC1=O)C(=O)N[C@H](C)C(=O)N[C@@H](CC(=O)O)C(=O)N[C@@H](CCC(=O)O)C(=O)N[C@@H](Cc1ccc(O)cc1)C(=O)N[C@H](C(N)=O)CSCCC3=O
notes: scaffold TATA
B12: BCY18441 (peptide)
peptide: Ac-CY[Cba]PNYLC[dA]DEYC-NH2
modifications: linker 1-8-13 via TATA
SMILES: CC(=O)N[C@H]1CSCCC(=O)N2CN3CN(C2)C(=O)CCSC[C@H](NC(=O)[C@H](CC(C)C)NC(=O)[C@H](Cc2ccc(O)cc2)NC(=O)[C@H](CC(N)=O)NC(=O)[C@@H]2CCCN2C(=O)[C@H](CC2CCC2)NC(=O)[C@H](Cc2ccc(O)cc2)NC1=O)C(=O)N[C@H](C)C(=O)N[C@@H](CC(=O)O)C(=O)N[C@@H](CCC(=O)O)C(=O)N[C@@H](Cc1ccc(O)cc1)C(=O)N[C@H](C(N)=O)CSCCC3=O
notes: scaffold TATA
B13: BCY18443 (peptide)
peptide: Ac-CY[Cba]PDYLC[dV]DEYC-NH2
modifications: linker 1-8-13 via TATA
notes: scaffold TATA
B14: BCY19682 (peptide)
peptide: Ac-CY[Cba]PDYLC[dF]DEYC-NH2
modifications: linker 1-8-13 via TATA
notes: scaffold TATA
B15: BCY18442 (peptide)
peptide: Ac-CY[Cba]PQYLC[dA]DEYC-NH2
modifications: linker 1-8-13 via TATA
SMILES: CC(=O)N[C@H]1CSCCC(=O)N2CN3CN(C2)C(=O)CCSC[C@H](NC(=O)[C@H](CC(C)C)NC(=O)[C@H](Cc2ccc(O)cc2)NC(=O)[C@H](CCC(N)=O)NC(=O)[C@@H]2CCCN2C(=O)[C@H](CC2CCC2)NC(=O)[C@H](Cc2ccc(O)cc2)NC1=O)C(=O)N[C@H](C)C(=O)N[C@@H](CC(=O)O)C(=O)N[C@@H](CCC(=O)O)C(=O)N[C@@H](Cc1ccc(O)cc1)C(=O)N[C@H](C(N)=O)CSCCC3=O
notes: scaffold TATA
B16: BCY19685 (peptide)
peptide: Ac-CY[Cba]PDYLC[dNle]DEYC-NH2
modifications: linker 1-8-13 via TATA
SMILES: CCCC[C@H]1NC(=O)[C@@H]2CSCCC(=O)N3CN(CN(C3)C(=O)CCSC[C@H](NC(C)=O)C(=O)N[C@@H](Cc3ccc(O)cc3)C(=O)N[C@@H](CC3CCC3)C(=O)N3CCC[C@H]3C(=O)N[C@@H](CC(=O)O)C(=O)N[C@@H](Cc3ccc(O)cc3)C(=O)N[C@@H](CC(C)C)C(=O)N2)C(=O)CCSC[C@@H](C(N)=O)NC(=O)[C@H](Cc2ccc(O)cc2)NC(=O)[C@H](CCC(=O)O)NC(=O)[C@H](CC(=O)O)NC1=O
notes: scaffold TATA

Numbered stars: 1 amine (or outer) side, 2 acyl side, 3 side chain; on linkers, the order of the positions; unused ones are H or OH. Bridge positions count the residues as written; N and C are the ends. Square brackets hold non-standard residues; d marks the D form. Ends that are not written are not given here. * marks the point of attachment. TATA = O=C(CC[*:1])N1CN(C(=O)CC[*:2])CN(C(=O)CC[*:3])C1; Tyr(2-F) = N[C@@H](Cc1ccc(O)cc1F)C(=O)O; Dopa = N[C@@H](Cc1ccc(O)c(O)c1)C(=O)O; hArg = N=C(N)NCCCC[C@H](N)C(=O)O; 4Pal = N[C@@H](Cc1ccncc1)C(=O)O; dCha = N[C@H](CC1CCCCC1)C(=O)O; Cba = N[C@@H](CC1CCC1)C(=O)O; Chg = N[C@H](C(=O)O)C1CCCCC1; dNle = CCCC[C@@H](N)C(=O)O; dNva = CCC[C@@H](N)C(=O)O; NMeA = CN[C@@H](C)C(=O)O; Pent4ynoyl = C#CCCC(=O)*

T1 sequence (O76036 22-255 limits assumed): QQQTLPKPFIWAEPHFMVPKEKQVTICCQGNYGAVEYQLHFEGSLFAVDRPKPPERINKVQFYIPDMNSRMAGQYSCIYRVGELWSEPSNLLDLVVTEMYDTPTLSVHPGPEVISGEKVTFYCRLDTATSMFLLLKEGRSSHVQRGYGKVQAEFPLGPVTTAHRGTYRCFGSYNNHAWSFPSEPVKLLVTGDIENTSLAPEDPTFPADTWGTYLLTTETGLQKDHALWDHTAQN

This assay concerns the target T1, Human NKp46 Fc tag (Acro Biosystems, NC1-H5257) (human, UniProt O76036 22-255).
T1 construct: bought; also called Fc-tagged human NKp46
The assay is described as follows: SPR Method 1 and/or 2. The method, then: The SPR analysis was run at 25° C. and a flow rate of 50 μl/min with 60 seconds association and 200-400 seconds dissociation time. Data were corrected for DMSO excluded volume effects. All data were double-referenced for blank injections and reference surface using standard processing procedures and data processing and kinetic fitting were performed using Scrubber software, version 2.0c (BioLogic Software). Data were fitted using simple 1:1 binding model allowing for mass transport effects where appropriate.
For analysis of peptide binding, a Biacore 8k+ instrument was used with a CM5 chip (Cytiva). All experiments were carried out at 25° C. Anti-human IgG (Fc) antibody (Cytiva) was immobilized on all flow cells by standard amine coupling chemistry. The running buffer was HBS-N(Cytiva, 10 mM HEPES, 0.15 M NaCl, pH 7.4) and the flow rate was 10 μL/min. The carboxymethyl dextran surface was activated with a 1:1 ratio of 0.4 M 1-ethyl-3-(3-dimethylaminopropyl) carbodiimide hydrochloride (EDC)/0.1 M N-hydroxy succinimide (NHS) (Cytiva) for 420s. […] Residual activated groups were blocked with a 420 s injection of 1 M ethanolamine (pH 8.5). The final surface density was 3000-5000 RU. Fc-tagged human NKp46 was diluted to 0.1 μM in HBS-N and was captured on flow cell 2 only of the sensor chip at a flow rate of 10 μL/min to 500-1000 RU. The buffer was then changed to PBS-P+(Cytiva) supplemented with 2% DMSO. […] The flow rate was 50 μL/min with 60 s association and 400 s dissociation. Data were corrected for DMSO volume exclusion effects. All data were double-referenced against blank injections and reference surface response using standard processing procedures. Data processing and kinetic fitting was performed using Biacore Insight Evaluation Software with Extended Screening and Characterization Extension (Cytiva). Data were fitted using steady state affinity 1:1 binding model to determine KD. Data were fitted using kinetic 1:1 binding model to determine kinetic constants where appropriate.
Regarding B1, the Kd (commonly a measure of binding affinity in units of concentration) was determined as 10 nM.

Molecule B2 returned a Kd of 44 nM. Compared with the last molecule, the Kd is about 4.4-fold higher. With B3 the figure was 3.9 nM; with B4, 9.4 nM; with B5, 47 nM. In the case of B6, the Kd is 887 nM. B7 returned a Kd of 149 nM. In the case of B8, the affinity, expressed as Kd, was 2780 nM. This Kd is about 19-fold higher than that of the molecule before. With B9 the figure was 22 nM. With B10 the figure was 28 nM; with B11, 91 nM; with B12, 7.7 nM. The molecule B13 displayed a Kd of 6.3 nM. With B14 the figure was 9 nM; with B15, 7.1 nM.

In turn, B16 returned a Kd of 10 nM.

Source of the values: patent publication US20240108738A1 (Bicycle, published 2024).
